Consider three molecules from US20210087291A1 (Hoffmann-La Roche, published 2021).

Where two headings read alike, the source gives them in different places.

The target in assay [1] is T1, cynomolgus FolR1 on transiently transfected HEK cells (cynomolgus, UniProt P15328 25-234 (human entry)).
T1 construct: also called cyno FolR1; cyFoLR1
Description: flow cytometry on HEK cells transiently transfected with cyno FolR1, anti-human secondary antibody.
Description: Cross-reactivity of the FolR1 antibodies to cyno FolR1 was addressed on HEK cells transiently transfected with cyFolR1 by flow cytometry. The antibodies were detected with a fluorescently labeled anti-human secondary antibody.
In parallel cross-reactivity of the FolR1 clones to cyno FolR1 was addressed by performing binding studies to HEK cells transiently transfected with cyno FolR1.

Assay [2] addresses T2, murine FolR1 ECD-AcTev-Fcknob-Avitag + Fc hole, biotinylated monomeric Fc fusion (murine, UniProt P0DOX5 223-449 = IgG part).
T2 construct: also called muFolR1; murine FolR1-Fc
Description: SPR, apparent KD, bivalent binding (avidity). A general note: SPR reads the build-up and loss of mass on a sensor chip optically.
Description: (§1) Binding of FolR1 binders as IgG or in the T-cell bispecific format to different recombinant folate receptors (human FolR1, 2 and 3, murine FolR1 and cynomolgus FolR1; all as Fc fusions) was assessed by surface plasmon resonance (SPR).
(§2) Recombinant biotinylated monomeric Fc fusions of human, cynomolgus and murine Folate Receptor 1 (FolR1-Fc) were directly coupled on a SA chip using the standard coupling instruction (Biacore, Freiburg/Germany). The immobilization level was about 300-400 RU. The anti-FolR1 IgGs or T cell bispecifics were passed at a concentration range from 2.1 to 500 nM with a flow of 30 μL/minutes through the flow cells over 180 seconds. The dissociation was monitored for 600 seconds. Bulk refractive index differences were corrected for by subtracting the response obtained on reference flow cell immobilized with recombinant biotinylated IL2 receptor Fc fusion. […] The binding curves resulting from the bivalent binding of the IgGs or T cell bispecifics were approximated to a 1:1 Langmuir binding and fitted with that model (which is not correct, but gives an idea of the avidity). The apparent avidity constants for the interactions were derived from the rate constants of the fitting using the Bia Evaluation software (GE Healthcare).

Assay [3] addresses T3, human FolR1 ECD-AcTev-Fcknob-Avi tag + Fc hole, biotinylated monomeric Fc fusion (human, UniProt P0DOX5 223-449 = IgG part).
T3 construct: also called huFolR1; huFolR1-Fc
Put plainly: SPR, apparent KD, bivalent binding (avidity).
Description: as §1, §2

Assay [4] deals with T4, cynomolgus FolR1 ECD-AcTev-Fcknob-Avi tag + Fc hole, biotinylated monomeric Fc fusion (cynomolgus, UniProt P0DOX5 223-449 = IgG part).
T4 construct: also called cyFolR1; cyno FolR1-Fc
Description: SPR, apparent KD, bivalent binding (avidity).
Description: as §1, §2

Assay [5] deals with T5, human FolR3 ECD-AcTev-Fcknob-Avi tag + Fc hole, biotinylated monomeric Fc fusion (human, UniProt P0DOX5 223-449 = IgG part).
T5 construct: also called huFolR3; FolR3-Fc
Description: SPR, IgG single injection.

For assay [6], the target named is T6, human FolR2 ECD-AcTev-Fcknob-Avi tag + Fc hole, biotinylated monomeric Fc fusion (human, UniProt P0DOX5 223-449 = IgG part).
T6 construct: also called huFolR2; FolR2-Fc
Description: SPR, IgG single injection.

Assay [7] concerns the target T2, murine FolR1 ECD-AcTev-Fcknob-Avitag + …. Put plainly: SPR, bivalent binding (avidity), antigen on SA chip.
Description: as §1, §2
Assay [8] addresses T3, human FolR1 ECD-AcTev-Fcknob-Avi tag + …. The description is as above.
Description: as §1, §2
Assay [9] has as its target T4, cynomolgus FolR1 ECD-AcTev-Fcknob-Avi …. The description is as above.
Description: as §1, §2
Assay [10] concerns the target human FolR2 on transiently transfected HEK cells (human, UniProt P14207 17-230). Put plainly: flow cytometry on HEK cells transiently transfected with human FolR2, anti-human secondary antibody; concentration not given.
The target of assay [11] is T7, human FolR1 on cells (human, UniProt P15328 25-234).
T7 construct: also called FolR1 on HeLa, SKOV3, HT-29 tumor cells; HEK cells transfected with human FolR1
Description: flow cytometry on HeLa cells (human FolR1), fluorescently labeled anti-human secondary antibody. Background: In flow cytometry, cells or beads pass a laser one at a time.
Description: (§3) Binding of newly generated FolR1 binders to FolR1 expressed on HeLa cells were determined by flow cytometry. Bound antibodies were detected with a fluorescently labeled anti-human secondary antibody.
(§4) The identified binders were converted into a human IgG1 format and binding to FolR1 high expressing HeLa cells was addressed.

Assay [12] addresses T2, murine FolR1 ECD-AcTev-Fcknob-Avitag + …. Description: SPR, apparent KD, bivalent binding, 2.3 uM folate in running buffer.
Description: as §1, §2
For assay [13], the target named is T3, human FolR1 ECD-AcTev-Fcknob-Avi tag + …. Description: SPR, IgG single injection.
Assay [14] deals with T4, cynomolgus FolR1 ECD-AcTev-Fcknob-Avi …. Put plainly: SPR, IgG single injection.
Assay [15] addresses T7, human FolR1 on cells. Put plainly: flow cytometry on HeLa cells (human FolR1), fluorescently labeled anti-human secondary antibody. The source holds these as a separate data set.
Description: as §3, §4
The target of assay [16] is T2, murine FolR1 ECD-AcTev-Fcknob-Avitag + …. Description: SPR, 500 nM IgG single injection.

T7 sequence (P15328 25-234 limits assumed): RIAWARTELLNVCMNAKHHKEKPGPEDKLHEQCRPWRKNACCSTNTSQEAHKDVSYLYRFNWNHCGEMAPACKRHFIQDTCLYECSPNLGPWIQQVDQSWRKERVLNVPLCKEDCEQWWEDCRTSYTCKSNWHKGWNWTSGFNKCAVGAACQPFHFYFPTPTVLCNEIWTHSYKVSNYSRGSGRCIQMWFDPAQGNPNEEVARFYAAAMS
human FolR2 on transiently transfected HEK cells, sequence (P14207 17-230 limits assumed): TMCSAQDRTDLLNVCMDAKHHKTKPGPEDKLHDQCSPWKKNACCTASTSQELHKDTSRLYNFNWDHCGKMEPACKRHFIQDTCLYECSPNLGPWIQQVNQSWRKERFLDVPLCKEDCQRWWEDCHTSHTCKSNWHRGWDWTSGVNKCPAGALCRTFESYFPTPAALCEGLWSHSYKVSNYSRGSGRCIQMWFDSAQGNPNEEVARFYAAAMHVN
T1 sequence (P15328 other isoform, or with tags, fused parts or gaps limits assumed): as the sequence (P15328 25-234 limits assumed) above, with I2T, W4R, R37K, Q117R, A146P, H171Y counted along it

B1: 36F2 IgG (antibody, V domains shown)
VH: QVQLVQSGAEVKKPGASVKVSCKASGYTFTSYYMHWVRQAPGQGLEWMGIINPSGGSTSYAQKFQGRVTMTHDTSTSTVYMELSSLRSEDTAVYYCARSFFTGFHLDYWGQGTLVTVSS
VL: EIVLTQSPGTLSLSPGERATLSCRASQSVSSSYLAWYQQKPGQAPRLLIYGASSRATGIPDRFSGSGSGTDFTLTISRLEPEDFAVYYCQQYTNEHYYTFGQGTKVEIK
notes: human IgG1
With B1, the binding result in [1] is given as “binds”; in assay [5] it was “no binding (tested: 500 nM)”; in assay [6], “no binding (tested: 500 nM)”; in [10], “no binding”; with human FolR1 on cells [11], “binds”. Moreover, the values for the Kd in [2], in assay [3] and in assay [4] were 1.63 nM, 5.74 nM and 5.31 nM, respectively. Also, the koff in assay [7] is 0.000603 s⁻¹; in [8] it was 0.0151 s⁻¹; in assay [9], 0.016 s⁻¹. For the same molecule, the kon worked out at 370000 M⁻¹ s⁻¹ in assay [7], 2.62e+06 M⁻¹ s⁻¹ in assay [8] and 3.02e+06 M⁻¹ s⁻¹ in assay [9].

B2: 19H3 IgG (antibody, V domains shown)
VH: QVQLVQSGAEVKKPGASVKVSCKASGYTFTSYYMHWVRQAPGQGLEWMGIINPSGGSTSYAQKFQGRVTMTRDTSTSTVYMELSSLRSEDTAVYYCARTGWSRWGYMDYWGQGTLVTVSS
VL: QAVVTQEPSLTVSPGGTVTLTCGSSTGAVTTSNYANWVQEKPGQAFRGLIGGTNKRAPGTPARFSGSLLGGKAALTLSGAQPEDEAEYYCALWYSNLWVFGGGTKLTVL
notes: human IgG1
As for B2, in assay [12], the Kd is 1.55 nM. The binding result in [13] is given as “no binding (tested: 500 nM)”; in assay [14] it was “no binding (tested: 500 nM)”; in [5], “no binding (tested: 500 nM)”; in assay [6], “no binding (tested: 500 nM)”; with human FolR1 on cells [15], “binds”.

B3: 20H7 IgG (antibody, V domains shown)
VH: QVQLVQSGAEVKKPGASVKVSCKASGYTFTSYYMHWVRQAPGQGLEWMGIINPSGGSTSYAQKFQGRVTMTRDTSTSTVYMELSSLRSEDTAVYYCARVGWYRWGYMDYWGQGTLVTVSS
VL: QAVVTQEPSLTVSPGGTVTLTCGSSTGAVTTSNYANWVQEKPGQAFRGLIGGTNKRAPGTPARFSGSLLGGKAALTLSGAQPEDEAEYYCALWYSNLWVFGGGTKLTVL
notes: human IgG1
As to B3, the binding result in [5] is listed as “no binding (tested: 500 nM)”; in [6], “no binding (tested: 500 nM)”; in [16], “binds”.

One may read the koff as the first-order rate constant of dissociation. In general, kon refers to a measure of how fast the partners come together.
